Values of other authors as cited in publication PMC8125740.

Target: Amyloid beta (Homo sapiens) (UniProt P05067)

In the case of “Cellular prion protein (from UniProt P04156)”, the Kd is listed as 1 nM.
